Assay results: US8673289B2, “Attenuated uracil auxotroph of an apicomplexan and use thereof” (priority 2007, dated 2014)
Read-outs that look alike come from different tables or passages of the source.

Key:
wild-type T. gondii = test: labeling of parasites with [3H]pyrimidines (pyrimidine salvage); format: cell-based, Toxoplasma gondii; details: parasites grown in host cells
Protocol: Initial experiments primarily involved an enzymatic analysis of drug resistant mutants and the incorporation of various pyrimidine analogs into T. gondii RNA and DNA as an indication of pyrimidine salvage when parasites were grown in either normal host or mutant host cells. All biochemical communications between the parasite and host cells cross the vacuolar membrane which is now known to contain “pores” that permit the passage of nucleobases ranging in molecular mass from 112 daltons up to 244 daltons. The size of the pores is estimated to be approximately 1500 daltons. A T. gondii mutant resistant to 5-fluorodeoxyuridine (FUDR-1) had lost uracil phosphoribosyltransferase (UPRT), an enzyme which is absent in normal host cells (Pfefferkorn (1978) Expt. Parasitol. 44:26-35). […] FUDR-1 mutant parasites were not labeled with [^3H]deoxyuridine. […] FUDR-1 mutant parasites were not labeled with [^3H]uridine. […] FUDR-1 (UPRT knock-out) parasites were not labeled with [^3H]uracil.
Similarly, since uracil only labels the parasite, due to the parasite UPRT, which is absent in the host, the pyrimidine pools of the parasite are also unavailable to the host. Thus, there is no detectable pyrimidine traffic detected between the parasite and host.

E. coli CPS = details: cited from earlier work

| Molecule | incorporation of [3H]-labeled pyrimidine into wild-type parasites (wild-type T. gondii) | Effect on CPS or CPSII (E. coli CPS; effect on UMP repression) | Effect on CPS or CPSII (E. coli CPS; effect on ornithine activation) | Effect on CPS or CPSII (E. coli CPS) | Effect on CPS or CPSII (E. coli CPS; effect on IMP activation) |
| --- | --- | --- | --- | --- | --- |
| O=C(O)c1cc(=O)[nH]c(=O)[nH]1 [orotic acid] | did not incorporate |  |  |  |  |
| E. c. H781K: E. coli CPS with K-loop mutation H781K (protein, UniProt P0A6F1 1-382; P00968 2-1073, looked up, variant H781K, mutation in large subunit) Carbamoyl phosphate synthase … 1: MIKSALLVLEDGTQFHGRAIGATGSAVGEVVFNTSMTGYQEILTDPSYSRQIVTLTYPHIGNVGTNDADEESSQVHAQGLVIRDLPLIASNFRNTEDLSSYLKRHNIVAIADIDTRKLTRLLREKGAQNGCIIAGDNPDAALALEKARAFPGLNGMDLAKEVTTAEAYSWTQGSWTLTGGLPEAKKEDELPFHVVAYDFGAKRNILRMLVDRGCRLTIVPAQTSAEDVLKMNPDGIFLSNGPGDPAPCDYAITAIQKFLETDIPVFGICLGHQLLALASGAKTVKMKFGHHGGNHPVKDVEKNVVMITAQNHGFAVDEATLPANLRVTHKSLFDGTLQGIHRTDKPAFSFQGHPEASPGPHDAAPLFDHFIELIEQYRKTAK Carbamoyl phosphate synthase … 2: PKRTDIKSILILGAGPIVIGQACEFDYSGAQACKALREEGYRVILVNSNPATIMTDPEMADATYIEPIHWEVVRKIIEKERPDAVLPTMGGQTALNCALELERQGVLEEFGVTMIGATADAIDKAEDRRRFDVAMKKIGLETARSGIAHTMEEALAVAADVGFPCIIRPSFTMGGSGGGIAYNREEFEEICARGLDLSPTKELLIDESLIGWKEYEMEVVRDKNDNCIIVCSIENFDAMGIHTGDSITVAPAQTLTDKEYQIMRNASMAVLREIGVETGGSNVQFAVNPKNGRLIVIEMNPRVSRSSALASKATGFPIAKVAAKLAVGYTLDELMNDITGGRTPASFEPSIDYVVTKIPRFNFEKFAGANDRLTTQMKSVGEVMAIGRTQQESLQKALRGLEVGATGFDPKVSLDDPEALTKIRRELKDAGADRIWYIADAFRAGLSVDGVFNLTNIDRWFLVQIEELVRLEEKVAEVGITGLNADFLRQLKRKGFADARLAKLAGVREAEIRKLRDQYDLHPVYKRVDTCAAEFATDTAYMYSTYEEECEANPSTDREKIMVLGGGPNRIGQGIEFDYCCVHASLALREDGYETIMVNCNPETVSTDYDTSDRLYFEPVTLEDVLEIVRIEKPKGVIVQYGGQTPLKLARALEAAGVPVIGTSPDAIDRAEDRERFQHAVERLKLKQPANATVTAIEMAVEKAKEIGYPLVVRPSYVLGGRAMEIVYDEADLRRYFQTAVSVSNDAPVLLDHFLDDAVEVDVDAICDGEMVLIGGIMEKIEQAGVHSGDSACSLPAYTLSQEIQDVMRQQVQKLAFELQVRGLMNVQFAVKNNEVYLIEVNPRAARTVPFVSKATGVPLAKVAARVMAGKSLAEQGVTKEVIPPYYSVKEVVLPFNKFPGVDPLLGPEMRSTGEVMGVGRTFAEAFAKAQLGSNSTMKKHGRALLSVREGDKERVVDLAAKLLKQGFELDATHGTAIVLGEAGINPRLVNKVHEGRPHIQDRIKNGEYTYIINTTSGRRAIEDSRVIRRSALQYKVHYDTTLNGGFATAMALNADATEKVISVQEMHAQIK |  | Reduces UMP repression | Reduces ornithine activation |  |  |
| E. c. C269A: E. coli CPS with catalytic triad mutation C269A (protein, UniProt P0A6F1 1-382; P00968 2-1073, looked up, variant C269A, mutation in small subunit) Carbamoyl phosphate synthase … 1: MIKSALLVLEDGTQFHGRAIGATGSAVGEVVFNTSMTGYQEILTDPSYSRQIVTLTYPHIGNVGTNDADEESSQVHAQGLVIRDLPLIASNFRNTEDLSSYLKRHNIVAIADIDTRKLTRLLREKGAQNGCIIAGDNPDAALALEKARAFPGLNGMDLAKEVTTAEAYSWTQGSWTLTGGLPEAKKEDELPFHVVAYDFGAKRNILRMLVDRGCRLTIVPAQTSAEDVLKMNPDGIFLSNGPGDPAPCDYAITAIQKFLETDIPVFGIALGHQLLALASGAKTVKMKFGHHGGNHPVKDVEKNVVMITAQNHGFAVDEATLPANLRVTHKSLFDGTLQGIHRTDKPAFSFQGHPEASPGPHDAAPLFDHFIELIEQYRKTAK Carbamoyl phosphate synthase … 2: PKRTDIKSILILGAGPIVIGQACEFDYSGAQACKALREEGYRVILVNSNPATIMTDPEMADATYIEPIHWEVVRKIIEKERPDAVLPTMGGQTALNCALELERQGVLEEFGVTMIGATADAIDKAEDRRRFDVAMKKIGLETARSGIAHTMEEALAVAADVGFPCIIRPSFTMGGSGGGIAYNREEFEEICARGLDLSPTKELLIDESLIGWKEYEMEVVRDKNDNCIIVCSIENFDAMGIHTGDSITVAPAQTLTDKEYQIMRNASMAVLREIGVETGGSNVQFAVNPKNGRLIVIEMNPRVSRSSALASKATGFPIAKVAAKLAVGYTLDELMNDITGGRTPASFEPSIDYVVTKIPRFNFEKFAGANDRLTTQMKSVGEVMAIGRTQQESLQKALRGLEVGATGFDPKVSLDDPEALTKIRRELKDAGADRIWYIADAFRAGLSVDGVFNLTNIDRWFLVQIEELVRLEEKVAEVGITGLNADFLRQLKRKGFADARLAKLAGVREAEIRKLRDQYDLHPVYKRVDTCAAEFATDTAYMYSTYEEECEANPSTDREKIMVLGGGPNRIGQGIEFDYCCVHASLALREDGYETIMVNCNPETVSTDYDTSDRLYFEPVTLEDVLEIVRIEKPKGVIVQYGGQTPLKLARALEAAGVPVIGTSPDAIDRAEDRERFQHAVERLKLKQPANATVTAIEMAVEKAKEIGYPLVVRPSYVLGGRAMEIVYDEADLRRYFQTAVSVSNDAPVLLDHFLDDAVEVDVDAICDGEMVLIGGIMEHIEQAGVHSGDSACSLPAYTLSQEIQDVMRQQVQKLAFELQVRGLMNVQFAVKNNEVYLIEVNPRAARTVPFVSKATGVPLAKVAARVMAGKSLAEQGVTKEVIPPYYSVKEVVLPFNKFPGVDPLLGPEMRSTGEVMGVGRTFAEAFAKAQLGSNSTMKKHGRALLSVREGDKERVVDLAAKLLKQGFELDATHGTAIVLGEAGINPRLVNKVHEGRPHIQDRIKNGEYTYIINTTSGRRAIEDSRVIRRSALQYKVHYDTTLNGGFATAMALNADATEKVISVQEMHAQIK |  |  |  | Abolishes GATase activity |  |
| E. c. T974A: E. coli CPS with regulatory domain mutation T974A (protein, UniProt P0A6F1 1-382; P00968 2-1073, looked up, variant T974A, mutation in large subunit) Carbamoyl phosphate synthase … 1: MIKSALLVLEDGTQFHGRAIGATGSAVGEVVFNTSMTGYQEILTDPSYSRQIVTLTYPHIGNVGTNDADEESSQVHAQGLVIRDLPLIASNFRNTEDLSSYLKRHNIVAIADIDTRKLTRLLREKGAQNGCIIAGDNPDAALALEKARAFPGLNGMDLAKEVTTAEAYSWTQGSWTLTGGLPEAKKEDELPFHVVAYDFGAKRNILRMLVDRGCRLTIVPAQTSAEDVLKMNPDGIFLSNGPGDPAPCDYAITAIQKFLETDIPVFGICLGHQLLALASGAKTVKMKFGHHGGNHPVKDVEKNVVMITAQNHGFAVDEATLPANLRVTHKSLFDGTLQGIHRTDKPAFSFQGHPEASPGPHDAAPLFDHFIELIEQYRKTAK Carbamoyl phosphate synthase … 2: PKRTDIKSILILGAGPIVIGQACEFDYSGAQACKALREEGYRVILVNSNPATIMTDPEMADATYIEPIHWEVVRKIIEKERPDAVLPTMGGQTALNCALELERQGVLEEFGVTMIGATADAIDKAEDRRRFDVAMKKIGLETARSGIAHTMEEALAVAADVGFPCIIRPSFTMGGSGGGIAYNREEFEEICARGLDLSPTKELLIDESLIGWKEYEMEVVRDKNDNCIIVCSIENFDAMGIHTGDSITVAPAQTLTDKEYQIMRNASMAVLREIGVETGGSNVQFAVNPKNGRLIVIEMNPRVSRSSALASKATGFPIAKVAAKLAVGYTLDELMNDITGGRTPASFEPSIDYVVTKIPRFNFEKFAGANDRLTTQMKSVGEVMAIGRTQQESLQKALRGLEVGATGFDPKVSLDDPEALTKIRRELKDAGADRIWYIADAFRAGLSVDGVFNLTNIDRWFLVQIEELVRLEEKVAEVGITGLNADFLRQLKRKGFADARLAKLAGVREAEIRKLRDQYDLHPVYKRVDTCAAEFATDTAYMYSTYEEECEANPSTDREKIMVLGGGPNRIGQGIEFDYCCVHASLALREDGYETIMVNCNPETVSTDYDTSDRLYFEPVTLEDVLEIVRIEKPKGVIVQYGGQTPLKLARALEAAGVPVIGTSPDAIDRAEDRERFQHAVERLKLKQPANATVTAIEMAVEKAKEIGYPLVVRPSYVLGGRAMEIVYDEADLRRYFQTAVSVSNDAPVLLDHFLDDAVEVDVDAICDGEMVLIGGIMEHIEQAGVHSGDSACSLPAYTLSQEIQDVMRQQVQKLAFELQVRGLMNVQFAVKNNEVYLIEVNPRAARTVPFVSKATGVPLAKVAARVMAGKSLAEQGVTKEVIPPYYSVKEVVLPFNKFPGVDPLLGPEMRSTGEVMGVGRTFAEAFAKAQLGSNSTMKKHGRALLSVREGDKERVVDLAAKLLKQGFELDAAHGTAIVLGEAGINPRLVNKVHEGRPHIQDRIKNGEYTYIINTTSGRRAIEDSRVIRRSALQYKVHYDTTLNGGFATAMALNADATEKVISVQEMHAQIK |  | Abolishes UMP repression | Reduces ornithine activation |  | Abolishes IMP activation |
